For one experiment, the target named is T1, human calpain I (Homo sapiens, UniProt P07384).
T1 construct: purchased Calbiochem
T1 sequence (P07384 1-714): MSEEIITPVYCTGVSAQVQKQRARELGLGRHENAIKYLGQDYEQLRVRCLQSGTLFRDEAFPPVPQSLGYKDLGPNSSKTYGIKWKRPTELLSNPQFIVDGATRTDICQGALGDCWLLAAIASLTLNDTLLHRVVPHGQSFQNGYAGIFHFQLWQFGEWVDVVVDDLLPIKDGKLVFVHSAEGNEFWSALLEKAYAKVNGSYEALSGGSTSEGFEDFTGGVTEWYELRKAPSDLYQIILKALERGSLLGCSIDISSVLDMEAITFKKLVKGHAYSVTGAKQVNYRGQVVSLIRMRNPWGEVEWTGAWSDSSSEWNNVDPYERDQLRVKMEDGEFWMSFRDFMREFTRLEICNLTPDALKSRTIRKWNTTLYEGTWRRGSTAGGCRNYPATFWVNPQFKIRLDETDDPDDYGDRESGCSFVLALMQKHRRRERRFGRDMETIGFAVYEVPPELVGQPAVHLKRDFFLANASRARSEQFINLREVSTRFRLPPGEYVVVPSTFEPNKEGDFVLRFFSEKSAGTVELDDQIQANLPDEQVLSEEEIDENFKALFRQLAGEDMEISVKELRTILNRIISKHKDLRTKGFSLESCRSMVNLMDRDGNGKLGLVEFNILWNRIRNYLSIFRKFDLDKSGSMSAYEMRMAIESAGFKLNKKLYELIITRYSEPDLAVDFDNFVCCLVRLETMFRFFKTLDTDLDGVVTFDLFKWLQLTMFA
T1 sequence (P04632 1-268 partner): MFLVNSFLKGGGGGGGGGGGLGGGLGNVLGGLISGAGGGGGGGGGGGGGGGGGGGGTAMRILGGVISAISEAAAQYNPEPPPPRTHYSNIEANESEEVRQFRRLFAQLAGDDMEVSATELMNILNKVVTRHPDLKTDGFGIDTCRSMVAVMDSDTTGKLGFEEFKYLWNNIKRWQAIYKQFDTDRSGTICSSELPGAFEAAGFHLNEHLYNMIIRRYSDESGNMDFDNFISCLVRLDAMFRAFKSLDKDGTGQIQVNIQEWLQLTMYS
Description: In vitro calpain-mediated proteolysis reaction. The note with it: for JP2 degradation by calpain I: WT mouse heart lysates, 3 mM free Ca2+, Z-LLY-FMK 20 μM, EDTA 5 mM. It is filed as biochemical. The method, then: Mouse and human heart tissues as well as HEK 293T cells (obtained from the ATCC and cultured according to the protocol of the manufacturer) overexpressing tagged JP2 were washed with PBS and homogenized in lysis buffer (20 mM Tris-HCl, 150 mM NaCl, 2 mM EDTA, and 1% Triton X-100), followed by sonication. Homogenates were centrifuged for 10 minutes at 14,000 rpm at 4° C. Protein content in the supernatant was determined using the BCA assay (Thermo Scientific). Cell extracts were diluted in ice-cold calpain reaction buffer (135 mM NaCl, 5 mM KCl, 1 mM MgCl2, 10 mM glucose, 10 mM Hepes (pH 7.25), 2 mM lactacystin, and 10 mM 2-mercaptoethanol) to a concentration of 4 mg protein/ml. Just prior to starting the protease reaction, CaCl2 was added to achieve a final concentration of 3 mM free Ca^2+ (in the presence of EDTA), as calculated by winmaxc32 (Stanford University). For some experiments, the free Ca^2+ concentration was adjusted to 500 μM, as calculated by winmaxc32. Purified human calpain I (Calbiochem) was added at a concentration of 1 mg of total protein/1 μg of calpain I. Reactions without Ca^2+ or without purified calpain I were used as controls. Reactions were incubated at 30° C. for the indicated time and stopped by adding EDTA to a final concentration of 10 mM and incubating for 5 minutes at 95° C. The reaction products were subjected to Western blotting.

For experiment [1], the system named is MEF2C Response Element (MRE) from the desmin enhancer. In words: Gel shift assay with MEF2 response element. The note with it: purified protein. The class given is binding. An excerpt:
FIGS. 12A-E. JP2NT represses MEF2-mediated transcription by competing for the MEF2 Response Element (MRE). A) Enrichment of MEF2 binding motifs in ChIP-seq dataset. B) Gel shift assay of JP2NT binding to a desmin promoter-derived DNA sequence containing a WT or mutated MRE in vitro. C) Co-immunoprecipitation of HA-tagged JP2NT binding to MEF2C or Histone H3. D) & E) MEF2 activity assays in 293T cells co-transfected with luciferase under the control of an MRE, MEF2C and WT JP2NT (D) or a mutant lacking the ARR (E, JP2NT^ΔARR). n≥3 independent batches of cells; in each batch of experiments, 3 replicates were performed for each transfection; **p<0.01 vs. Ad-Empty.
The MEF2 family, master regulators of hypertrophic genes in cardiomyocytes, binds to the A/T enriched consensus sequence (C/TTA(A/T)4TA G/A), which shares the same core sequence with TATA box. Thus, it was hypothesized that JP2NT directly interacts with MEF2 binding sites.

The test system of another experiment is TATA box DNA sequences. Description: Gel shift assay with TATA box sequences. The class given is binding. The note with it: GST-purified protein; cMyc or CMV promoter sequences. The source says:
FIGS. 11A-H. JP2NT is a TATA-box binding protein enriched at transcription start site (TSS) and interacts with basic transcription machinery. […] C) 293T cells were transfected with HA-tagged JP2NT, followed by crosslinking-reversal immunoprecipitation with anti-HA and immunoblotting with anti-polymerase II (Rpb1) or anti-TATA box binding protein (TBP). D-H) JP2NT binds to TATA box DNA sequences in vitro. D-E) Gel shift assays of GST-purified JP2NT binding to WT (D). or mutated TATA box-containing sequences (E) derived from the cMyc promoter. F) Summary of the results of gel shift assays with various of TATA box variants or mutants. Mutation of the core TATA sequences abolished the interaction with GST-JP2NT. G) Deletion of the ARR, but not the N-terminal MORN domains, eliminated JP2NT binding to the TATA box sequence. H) The peptide JP2^331-405 containing the ARR specifically binds to WT TATA box sequence.
TBP specifically binds to TATA boxes, eukaryotic core cis-regulatory elements localized at transcription start site. […] This interaction was abrogated by mutation of the TATA box elements (FIGS. 11E&G and 17B). It was concluded that JP2NT is a DNA binding protein, binding to consensus TATA box represented as TATAA(A/T) or TATATA (FIG. 11F).

The subject of another experiment is JP2-KD cardiomyocytes. Description: Confocal Ca2+ imaging in JP2-KD cardiomyocytes after adenoviral expression. It is filed as cell-based, mouse. The note with it: 1-Hz field stimulation. The source says:
Specifically, conditional shJP2 mice (provided by Dr. Wehrens) (van Oort et al., 2011) were crossed with mice carrying the cardiac-specific α-myosin heavy chain promoter upstream of Cre (% MHC-Cre, also FVB-Tg(Myh6-cre)2182Mds/J, The Jackson Laboratory). The shJP2 mice were maintained on a C57BL/6 background for more than 10 generations. The αMHC-Cre mice were maintained on an FVB background. PCR was used to genotype the offspring. The near complete depletion of JP2 protein in JP2-KD (αMHC-Cre X shJP2) hearts has been reported recently (Chen et al., 2013). JP2-KD mice were sacrificed at 2 months of age for isolation and culture of ventricular cardiomyocytes as described below.
Genecarrior-1 (Epoch Lab) was used to transfect plasmids into HEK293T cells. Isolation and culture of cardiomyocytes were performed as described previously (Guo et al., 2012). […] Ca^2+ Imaging experiments were performed 40 hours after adenoviral infection.
Cells were loaded with Rhod-2AM at 37° C. for 20 minutes, followed by washing with Tyrode's solution at room temperature for 15 minutes before Ca^2+ imaging. Confocal images were acquired using a ×63, 1.3 numerical aperture oil immersion objective mounted on a Zeiss LSM 510 confocal microscope. Confocal line scanning was used to record Ca^2+ signals. Steady-state Ca^2+ transients were recorded in Tyrode's solution containing 1.8 mM Ca^2+ under field stimulation of 1 Hz. At least five steady-state transients for each cell were analyzed and averaged to represent Ca^2+ signals of the cell. Ca^2+ imaging data were analyzed by using a home-complied software, CaTeasy, which is coded in MATLAB 2013a (Mathworks). Briefly, the program normalizes Ca^2+ transient images on a column-by-column basis (512 columns/image). The characteristic parameters of normalized transients were detected automatically. The firing time of every scanning pixel was detected column by column on the basis of the maximum local variability of pixel intensity. The profile of the point-to-point firing time was indicated by a red line overlapping on the Ca^2+ image. Index of desynchronization, defined by the mean absolute deviation of firing time of each scanning pixel (with every 8 pixels binned), was used to evaluate the dyssynchrony of Ca^2+ transients. This automated software for calcium transient analysis is available upon request.

The test system of the next experiment is RyR2 and Cav1.2. In words: Coimmunoprecipitation with E-C coupling channels. It is filed as binding, mouse. The note with it: anti-HA immunoprecipitation. The source says:
FIGS. 5A-H. JP2 truncations are nonfunctional in regulating Ca^2+ transients. A) An antibody against the HA tag was used to reveal the localization of adenoviral expression of tagged full-length JP2 and truncations, as indicated, in adult wild-type cardiomyocytes. All the three version of JP2 can be localized in the striated pattern. B) Full-length JP2 and JP2(1-565) forms complexes with RyR2 and Cav1.2 In vivo. An antibody against HA was used for immunoprecipitation […]. The RyR2 and Cav1.2 that were pulled down were detected by Western blot analysis. […] IB, immunoblot. C) Adenovirus-mediated expression of full-length JP2, FLAG-JP2(1-565)-HA, and JP2(566-end)-HA in JP2-KD) cardiomyocytes. D) Representative steady-state Ca^2+ transients under 1-Hz field stimulation. The fluorescence intensity (F) of Ca^2+ imaging was normalized to the baseline (FO). The red lines overlapping on Ca^2+ imaging show the profile of the moment of Ca^2+ transient firing on the scanning line in a point-by-point way. A straighter line means better synchronization of the Ca^2+ transients. Note that expression of full-length JP2, but not JP2 truncations, improves the amplitude and synchronization of Ca^2+ transients. E-G) Summary of Ca^2+ transient amplitude, index of desynchronization (mean absolute deviation of firing time), and duration of 50% decay (T5) (n=68, 70, 70, and 52 for Ad-Empty, Ad-JP2, […], and Ad-JP2(566-end), respectively). Only full-length JP2 Improves the amplitude, synchronization, and decay of Ca^2+ transients. H) Summary of SR Ca^2+ content, which was assessed by caffeine-induced SR Ca^2+ release (n=17, 17, 17, and 12 for Ad-Empty, Ad-JP2, Ad-JP2(1-565), and Ad-JP2(566-end), respectively). **, p<0.01 versus indicated groups; N.S., not significant.
Cleavage at the primary calpain proteolysis site (Arg-565/Thr-566) splits apart the C-terminal SR-binding TM domain and N-terminal plasma membrane-binding MORN domains of JP2. […]

Consider four molecules from patent US11351270B2, “Junctophilin-2 fragments and uses therefor” (University of Iowa Research Foundation, priority 2016, dated 2022).

Peptide text beside a SMILES is read from it. * marks the point of attachment. Cbz = O=C(OCc1ccccc1)*; CH2F = FC*

For the molecule `O=C(O)CN(CCN(CC(=O)O)CC(=O)O)CC(=O)O` [EDTA], at human calpain I, the “JP2 degradation by calpain I” value is “inhibited JP2 degradation”. Consider `CC(C)CC(NC(=O)OCc1ccccc1)C(=O)NC(CC(C)C)C(=O)NC(Cc1ccc(O)cc1)C(=O)CF` (stereo not drawn) [Z-LLY-FMK] (Cbz-Leu-Leu-Tyr-CH2F; configuration not given here), for which the “JP2 degradation by calpain I” value on human calpain I is listed as “inhibited JP2 degradation”. Further, the “JP2 cleavage products and full-length JP2” value at human calpain I (lysates of 293T cells overexpressing FLAG/HA-tagged JP2, 3 mM and 500 μM Ca2+) was “substantial reduction in cleavage products and preservation of full-length JP2”.

B1: GST-JP2^331-405: purified peptide containing the ARR; DNA binding domain of JP2NT (protein, UniProt Q9ET78 331-405, looked up, fragment)
chain: EEGKYRHNVLVKGTKRRVLPLKSSKVRQKVEHGVEGAQRAAAIARQKAEIAASRTSHAKAKAEAAEQAALAANQE
modifications: GST tag
B1: the “interaction with MEF2C Response Element (MRE)” value in experiment [1] is listed as “interacts”. Moreover, in the experiment with TATA box DNA sequences, the “binding to TATA box” value is listed as “specifically bound to the consensus but not mutant TATA box”.

B2: JP2(566-end): C-terminal JP2 truncation, tagged with HA at the C terminus (protein)
chain: TGPPEPPPLEDEQEPEPEPEPEVRRSDSAPPSPVSATVPEEEPPAPRSPVPAKQATLEPKPIVPKAEPKAKARKTEARGLSKAGAKKKGRKEVAQAKEAEVEVEEVPNTVLICMVILLNIGLAILFVHLLTYPYDVPDYA
With B2, in the experiment on JP2-KD cardiomyocytes, the “restoration of Ca2+ transients” value is on record as “failed to restore”. Further, the “interaction with RyR2 and Cav1.2” value in the experiment with RyR2 and Cav1.2 is reported as “not”.
